From US11630109B2, “Sensors and assays for ubiquitin or ubiquitin-like proteins” (Colorado State University Research Foundation, priority 2013, dated 2023)

Columns and labels:
Format in all cases: binding
Nedd8 [1] = molecular target: T1, Nedd8 (Homo sapiens, UniProt Q15843); experiment: Fluorescence intensity titration of Atto532-tIV with free Nedd8
Procedure: FIG. 22 provides a graph showing that Atto532-tagged tIV L1 Cys binds to free Nedd8 with a Kd of several μM.
Increasing concentrations of free Nedd8 protein were added to Atto532-tIV, and the fluorescence intensity was measured (see FIG. 22).

Nedd8 [2] = molecular target: T1, Nedd8; experiment: tSR competition assay with Atto532-tagged ubiquitin, relative fluorescence; conditions: 5 nM Atto532-tagged ubiquitin protein and 600 nM tSR
Procedure: A competition assay was performed where unconjugated free ubiquitin proteins, different kinds of conjugated free ubiquitin proteins, and Nedd8 were added to mixtures of 5 nM Atto532-tagged ubiquitin protein and 600 nM tSR. The relative fluorescence was measured. […] The Ki values for unconjugated ubiquitin proteins and the different kinds of conjugated free ubiquitin proteins are provided in a table (bottom).
The binding affinities of tSR were determined (see FIG. 25). A competition assay was performed where free ubiquitin proteins, different kinds of conjugated free ubiquitin proteins, and Nedd8 were added to mixtures of 5 nM Atto532-tagged ubiquitin protein and 600 nM tSR. The relative fluorescence was measured. […] The Ki values for unconjugated ubiquitin proteins and the different kinds of conjugated free ubiquitin proteins are provided in a table (see FIG. 25).

[3] = system: conjugated ubiquitin protein; experiment: Direct titration of Alexa488-tagged tSR, relative fluorescence; conditions: 10 nM Alexa488 tSR
Procedure: (§1) The relative fluorescence intensity changes of Alexa488-tagged tSR when ubiquitin is added is shown (middle). The relative fluorescence of 10 nM Alexa488 tSR when different concentrations of unconjugated ubiquitin protein, conjugated ubiquitin protein, or Nedd8 are added (right).
(§2) The tSR can be used for direct titration experiments (see FIG. 26). The relative fluorescence intensity changes of Alexa488-tagged tSR when ubiquitin is added at varying concentrations. The relative fluorescence of 10 nM Alexa488 tSR was measured with different concentrations of unconjugated ubiquitin protein, conjugated ubiquitin protein, or Nedd8.

Nedd8 [4] = molecular target: T1, Nedd8; experiment: as above; conditions: 10 nM Alexa488 tSR
Procedure: as §1, §2

[5] = molecular target: unconjugated ubiquitin protein (Homo sapiens, UniProt P0CG48); experiment: as above; conditions: 10 nM Alexa488 tSR
Procedure: as §1, §2

T1 sequence (Q15843 1-76 limits assumed): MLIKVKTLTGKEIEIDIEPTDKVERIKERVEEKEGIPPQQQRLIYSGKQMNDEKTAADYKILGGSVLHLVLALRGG

B1: tIV: chimeric protein with two ubiquitin binding domains, IsoT ZnF and Vps27 UIM, SEQ ID NO: 5 (protein)
chain: MGSSHHHHHHSSGLVPRGSHMKQEVQAWDGEVRQVSKHAFSLKQLDNPARIPPSGWKCSKCDMRENLWLNLTDGSILCGRRYFDGSGGNNHAVEHYRETGYPLAVKLGTITPDGADVWSYDEDDMVLDPSLAEHLSHFGIDMLKMQKGSCAAAEEAELDLKAAIQESLREA
modifications: tIV - Atto532-tagged chimeric polypeptide comprising two binding domains that bind ubiquitin in non-overlapping regions
- binding affinity for free Nedd8 protein compared with conjugated Nedd8 protein (Nedd8 [1]; predicted from binding interactions of Vps27UIM and Nedd8): greater binding affinity

B2: Atto532-tagged tIV L1 Cys: tIV L1 Cys (SEQ ID NO: 5) tagged with Atto532 fluorophore at the linker Cys (conjugate)
chain: B1 chain
modifications: Atto532 fluorophore on linker Cys; tIV - Atto532-tagged chimeric polypeptide comprising two binding domains that bind ubiquitin in non-overlapping regions
- KD for Nedd8 (Nedd8 [1]; free Nedd8 added to Atto532-tIV, fluorescence intensity): several

B3: tSR: universal chimeric polypeptide sensor, SEQ ID NO: 7: S5a UIM and Ruz domains connected by a linker (protein)
chain: MPSSHHHHHHSSGLVPRGSHMTEEEQIAYAMQMSLREAGGGSDLLCKKGCGYYGNPAWQGFCSKCWREEAHKCAAERAAAE
modifications: tSR - chimeric polypeptide comprising two binding domains that bind ubiquitin in non-overlapping regions
- specificity against Nedd8 (Nedd8 [2]): specificity against Nedd8

B4: Alexa488-tagged tSR: tSR tagged with Alexa488 fluorophore (conjugate)
chain: B3 chain
- binding of conjugated ubiquitin protein [3]: detected
- binding of Nedd8 protein (Nedd8 [4]): but not Nedd8 protein
- binding of unconjugated ubiquitin protein [5]: detected
